Test results from US20220251236A1 (Boehringer Ingelheim, published 2022).

Tests used:
[1] = molecular target: T1, trypsin inhibitor from glycine max soybean (Glycine max (soybean)); experiment: SPR (Biacore T200), trypsin inhibitor on CM5 chip, sample at 1 µM
T1 construct: also called Tryp
From the text: To prepare the surface for the non-specific binding experiment, chicken egg white lysozyme and trypsin inhibitor from glycine max soybean were coupled manually to a series S CM5 chip with the surface density of 3000-5000 RU using the amine coupling kit according to the manufacture instructions.

[2] = molecular target: T2, Human CD3 E+G HuFc-6xHis (human); experiment: SPR (ProteOn XPR36), HuCD3E_HuCD3G-Fc amine-coupled, bispecific as analyte, Example 4B
T2 construct: also called hu CD3εγ-Fc
T2 sequence (chain, as listed by the source limits assumed): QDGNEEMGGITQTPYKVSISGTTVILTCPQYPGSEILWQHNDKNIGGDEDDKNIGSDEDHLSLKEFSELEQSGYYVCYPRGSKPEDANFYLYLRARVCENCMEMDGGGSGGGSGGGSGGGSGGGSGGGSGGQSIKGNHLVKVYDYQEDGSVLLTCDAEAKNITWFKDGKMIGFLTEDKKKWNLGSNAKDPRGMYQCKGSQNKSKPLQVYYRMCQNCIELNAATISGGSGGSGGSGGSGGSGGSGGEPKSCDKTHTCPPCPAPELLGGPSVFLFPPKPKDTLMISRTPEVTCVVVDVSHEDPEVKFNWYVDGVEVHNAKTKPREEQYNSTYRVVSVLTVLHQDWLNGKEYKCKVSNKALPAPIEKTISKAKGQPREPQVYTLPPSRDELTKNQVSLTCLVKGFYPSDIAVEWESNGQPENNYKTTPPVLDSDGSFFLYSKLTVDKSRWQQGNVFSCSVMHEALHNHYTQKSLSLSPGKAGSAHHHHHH
Protocol: (§1) The binding affinity of purified DLL3/CD3 bispecific constructs for recombinant human DLL3-ECD and Fc-fusion protein of human CD3 εγ subunits was determined by Surface Plasmon Resonance (SPR), using a ProteOn XPR36 instrument (Bio-Rad).
For binding kinetic determination to CD3, HuCD3E_HuCD3G-Fc (dissolved in pH 4.5 acetate) was immobilized directly onto the sensor surface through amine coupling for 360 sec at a flowrate of 30 μl/min vertically. The baseline was stabilized by injecting PBS-T-EDTA for 60 sec at a flowrate of 30 μl/min horizontally. The analytes (all anti-DLL3/CD3 molecules) were injected horizontally over the captured antibody for 600 sec at a flowrate of 30 μl/min and a dissociation for 1800 sec.

[3] = molecular target: T3, EGF6+MEMBRANE PROXIMAL PEPTIDE; experiment: flow cytometry on HEK293 cells expressing the DLL3 subdomain construct, PE anti-human secondary, control: secondary antibody only
T3 construct: also called Hu DLL3 EGF6+membrane proximal peptide on HEK293 cells
T3 membrane-anchored DLL3 subdomain construct: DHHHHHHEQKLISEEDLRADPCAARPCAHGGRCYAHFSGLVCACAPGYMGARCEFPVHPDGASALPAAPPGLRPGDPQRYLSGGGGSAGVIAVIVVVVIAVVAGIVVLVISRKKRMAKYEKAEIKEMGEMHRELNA
Protocol: (§2) DLL3/CD3 binding proteins were produced by transient transfection of CHO-E cells with the pTT5 vectors carrying the chain-encoding genes, as described in Example 2. […] Bound molecules were detected with PE-conjugated anti-human secondary antibody (Sigma-Aldrich, #P8047). As negative control, cells were incubated with secondary antibody only.
(§3) The samples were measured by flow-cytometry. […] The sequences of the epitope domains are listed in Example 5, Table 3.

[4] = molecular target: T4, EGF2+3; experiment: as above
T4 construct: also called Hu DLL3 EGF2+3 on HEK293 cells
T4 membrane-anchored DLL3 subdomain construct: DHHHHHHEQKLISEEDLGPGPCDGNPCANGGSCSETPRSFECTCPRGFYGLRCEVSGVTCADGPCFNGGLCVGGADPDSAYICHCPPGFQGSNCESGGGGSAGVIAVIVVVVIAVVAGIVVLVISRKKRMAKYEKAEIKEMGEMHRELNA
Protocol: as §2, §3

[5] = molecular target: T5, EGF4+5; experiment: as above
T5 construct: also called Hu DLL3 EGF4+5 on HEK293 cells
T5 membrane-anchored DLL3 subdomain construct: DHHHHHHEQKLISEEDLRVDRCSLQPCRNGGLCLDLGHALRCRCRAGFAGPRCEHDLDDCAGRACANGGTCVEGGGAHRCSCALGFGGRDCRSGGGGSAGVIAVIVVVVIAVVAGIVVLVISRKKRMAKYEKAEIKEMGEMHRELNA
Protocol: as §2, §3

[6] = molecular target: T6, EGF5+6; experiment: as above
T6 construct: also called Hu DLL3 EGF5+6 on HEK293 cells
T6 membrane-anchored DLL3 subdomain construct: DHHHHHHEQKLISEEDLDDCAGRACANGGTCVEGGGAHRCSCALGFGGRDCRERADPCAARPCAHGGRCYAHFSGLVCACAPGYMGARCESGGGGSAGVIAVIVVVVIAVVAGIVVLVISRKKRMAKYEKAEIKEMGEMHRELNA
Protocol: as §2, §3

[7] = molecular target: T7, EGF3+4; experiment: as above
T7 construct: also called Hu DLL3 EGF3+4 on HEK293 cells
T7 membrane-anchored DLL3 subdomain construct: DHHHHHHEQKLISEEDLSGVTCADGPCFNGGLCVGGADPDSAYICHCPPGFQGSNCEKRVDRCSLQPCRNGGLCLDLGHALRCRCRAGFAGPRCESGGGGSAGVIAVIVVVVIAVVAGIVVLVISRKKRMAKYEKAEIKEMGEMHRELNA
Protocol: as §2, §3

[8] = molecular target: T8, EGF1+2; experiment: as above
T8 construct: also called Hu DLL3 EGF1+2 on HEK293 cells
T8 membrane-anchored DLL3 subdomain construct: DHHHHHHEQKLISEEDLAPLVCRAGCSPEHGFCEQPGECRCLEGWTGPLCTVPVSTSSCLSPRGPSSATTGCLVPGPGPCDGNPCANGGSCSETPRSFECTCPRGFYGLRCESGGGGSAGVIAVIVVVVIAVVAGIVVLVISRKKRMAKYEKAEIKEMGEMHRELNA
Protocol: as §2, §3

[9] = molecular target: T9, Human DLL3-His (human, UniProt Q9NYJ7 27-492); experiment: SPR (ProteOn XPR36), bispecific captured on protein A/G, hu DLL3 as analyte, Example 4B
T9 construct: also called huDLL3-His; hu DLL3
T9 sequence: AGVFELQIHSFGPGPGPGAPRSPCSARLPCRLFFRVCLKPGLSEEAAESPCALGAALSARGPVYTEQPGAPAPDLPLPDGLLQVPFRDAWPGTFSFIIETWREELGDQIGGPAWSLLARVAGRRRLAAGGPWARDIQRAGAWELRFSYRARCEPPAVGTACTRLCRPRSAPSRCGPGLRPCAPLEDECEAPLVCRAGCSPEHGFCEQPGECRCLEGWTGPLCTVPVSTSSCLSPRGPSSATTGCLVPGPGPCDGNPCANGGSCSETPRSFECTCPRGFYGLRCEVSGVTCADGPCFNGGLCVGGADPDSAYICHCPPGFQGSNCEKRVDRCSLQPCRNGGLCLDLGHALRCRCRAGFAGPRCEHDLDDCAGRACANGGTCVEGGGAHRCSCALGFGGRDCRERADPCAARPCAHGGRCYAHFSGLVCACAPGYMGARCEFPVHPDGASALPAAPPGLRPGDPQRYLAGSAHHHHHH
Protocol: as §1
For binding kinetic determination to DLL3, anti-DLL3/CD3 molecules were captured individually on the protein A/G surface vertically for 200 sec at a flowrate of 30 μl/min. The baseline was stabilized by injecting PBS-T-EDTA for 60 sec at a flowrate of 30 μl/min horizontally. The analyte (hu DLL3) was injected horizontally over the captured antibody for 300 sec at a flowrate of 30 μl/min and a dissociation for 1800 sec.

T1 sequence (P01070 25-205): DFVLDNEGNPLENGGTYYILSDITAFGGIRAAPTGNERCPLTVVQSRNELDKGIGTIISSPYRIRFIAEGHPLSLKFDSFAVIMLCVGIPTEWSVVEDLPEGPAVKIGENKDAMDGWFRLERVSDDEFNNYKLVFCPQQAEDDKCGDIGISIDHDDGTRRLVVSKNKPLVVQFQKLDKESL

B1: DLL3#11/CD3#1 (bispecific antibody, human IgG1, kappa, lambda, L234A L235A)
chain 1: QIVLTQSPAIMSASPGEKVTITCSASSSVTYIHWFQQNPGTSPKLWIYRTSYLASGVPARFSGSGSGTSYSLTISRMEAEDAATYYCQQRSSYPRTFGGGTKLEIKRTVAAPSVFIFPPSDEQLKSGTASVVCLLNNFYPREAKVQWKVDNALQSGNSQESVTEQDSKDSTYSLSSTLTLSKADYEKHKVYACEVTHQGLSSPVTKSFNRGECGGGGSEGKSSGSGSESKSTEGKSSGSGSESKSTGGGGSQVQLQQPGAELVQPGSSVKMSCKASGYAFSDYWITWVKQRPGQGLEWIGDIYPGSGSTKSSEKFKNKATLTADTSSSKAYIQFSSLTPEDSAVYYCVSLYYYGSHYLDTWGQGTTLTVSSASTKGPSVFPLAPSSKSTSGGTAALGCLVKDYFPEPVTVSWNSGALTSGVHTFPAVLQSSGLYSLSSVVTVPSSSLGTQTYICNVNHKPSNTKVDKRVEPKSCDKTHTCPPCPAPEAAGGPSVFLFPPKPKDTLMISRTPEVTCVVVDVSHEDPEVKFNWYVDGVEVHNAKTKPREEQYNSTYRVVSVLTVLHQDWLNGKEYKCKVSNKALPAPIEKTISKAKGQPREPQVYTLPPSREEMTKNQVSLWCLVKGFYPSDIAVEWESNGQPENNYKTTPPVLDSDGSFFLYSKLTVDKSRWQQGNVFSCSVMHEALHNHYTQKSLSLSPG
chain 2: EAVVTQEPSLTVSPGGTVTLTCRSSTGAVTTSNYANWVQEKPGQLPRGLIGGTNKRAPWVPARFSGSLLGGKAALTLSGAQPEDEAEYFCALWYSNLWVFGGGTKLTVLGQPKAAPSVTLFPPSSEELQANKATLVCLISDFYPGAVKVAWKADGSPVNTGVETTTPSKQSNNKYAASSYLSLTPEQWKSHRSYSCQVTHEGSTVEKTVAPAECSGGGGSEGKSSGSGSESKSTEGKSSGSGSESKSTGGGGSEVQLVESGGGLVQPGGSLKLSCAASGFTFNTYAMNWVRQAPGKGLEWVARIRSKYNNYATYYADSVKDRFTISRDDSKNTAYLQMNNLKTEDTAVYYCVRHGNFGNSYVSWFAYWGQGTLVTVSAASTKGPSVFPLAPSSKSTSGGTAALGCLVKDYFPEPVTVSWNSGALTSGVHTFPAVLQSSGLYSLSSVVTVPSSSLGTQTYICNVNHKPSNTKVDKRVEPKSCDKTHTCPPCPAPEAAGGPSVFLFPPKPKDTLMISRTPEVTCVVVDVSHEDPEVKFNWYVDGVEVHNAKTKPREEQYNSTYRVVSVLTVLHQDWLNGKEYKCKVSNKALPAPIEKTISKAKGQPREPQVYTLPPSREEMTKNQVSLSCAVKGFYPSDIAVEWESNGQPENNYKTTPPVLDSDGSFFLVSKLTVDKSRWQQGNVFSCSVMHEALHNRFTQKSLSLSPG
notes: Heterodimer of one DLL3 chain and one CD3 chain (scFab-Fc, knob-in-hole)
In the case of B1, the “Non-specific binding (RU)” value [1] is reported as 13 RU, the Kd [2] is reported as 2 nM and the binding result [3] is reported as “no binding (tested: 1.6 nM)”. B1: no binding (tested: 1.6 nM) [4]; no binding (tested: 1.6 nM) [5]; no binding (tested: 1.6 nM) [6]. B1: no binding (tested: 1.6 nM) [7].

B2: DLL3#7/CD3#1 (bispecific antibody, human IgG1, kappa, lambda, L234A L235A)
chain 1: EIVLTQSPDTLSLSPGERATLSCRASQSVNSNFLAWYQQKPGQTPRLLIFGTSSRATGIPDRFSGSGSGTDFTLTISRLEPEDFAVYYCQQYGSSPWTFGQGTKVEIRRTVAAPSVFIFPPSDEQLKSGTASVVCLLNNFYPREAKVQWKVDNALQSGNSQESVTEQDSKDSTYSLSSTLTLSKADYEKHKVYACEVTHQGLSSPVTKSFNRGECGGGGSEGKSSGSGSESKSTEGKSSGSGSESKSTGGGGSQVQLVESGGGVVQPGRSLRLSCAASGFTFSSYGMFWVRQAPGKGLEWVAVIWLDGDDEDYVDSVKGRFTISRDDSKNTLYLQMNSLRVDDTAIYYCARVLDYWGQGTLVTVSSASTKGPSVFPLAPSSKSTSGGTAALGCLVKDYFPEPVTVSWNSGALTSGVHTFPAVLQSSGLYSLSSVVTVPSSSLGTQTYICNVNHKPSNTKVDKRVEPKSCDKTHTCPPCPAPEAAGGPSVFLFPPKPKDTLMISRTPEVTCVVVDVSHEDPEVKFNWYVDGVEVHNAKTKPREEQYNSTYRVVSVLTVLHQDWLNGKEYKCKVSNKALPAPIEKTISKAKGQPREPQVYTLPPSREEMTKNQVSLWCLVKGFYPSDIAVEWESNGQPENNYKTTPPVLDSDGSFFLYSKLTVDKSRWQQGNVFSCSVMHEALHNHYTQKSLSLSPG
chain 2: B1 chain 2
In the case of B2, the Kd [2] is reported as 1 nM.

B3: DLL3#14/CD3#1 (bispecific antibody, human IgG1, kappa, lambda, L234A L235A)
chain 1: not shown
chain 2: B1 chain 2
notes: as for B1
B3 was tested, and the “Non-specific binding (RU)” value [1] was 6 RU, the Kd [2] was 3 nM and the binding result [3] was “no binding (tested: 1.6 nM)”. B3: no binding (tested: 1.6 nM) [4]; no binding (tested: 1.6 nM) [5]; no binding (tested: 1.6 nM) [6]. The binding result [7] was “no binding (tested: 1.6 nM)”, the binding result [8] was “no binding (tested: 1.6 nM)” and the Kd [9] was 0.06 nM.

B4: DLL3#1/CD3#1 (bispecific antibody, human IgG1, kappa, lambda, L234A L235A)
chain 1: EIVLTQSPGTLSLSPGERATLSCRASQSVSSNFLVWYQQKPGQAPRPLIYGASTRASGIPDRFSGSGSGADFTLTISRLEPEDFALYYCQQYGDSPYTFGQGTTLEIKRTVAAPSVFIFPPSDEQLKSGTASVVCLLNNFYPREAKVQWKVDNALQSGNSQESVTEQDSKDSTYSLSSTLTLSKADYEKHKVYACEVTHQGLSSPVTKSFNRGECGGGGSEGKSSGSGSESKSTEGKSSGSGSESKSTGGGGSQVQLVQSGAEVKKPGASVKVSCKASGNTFTNYYMHWVRQAPGPGLEWMGIIDPSVGSKSYAQKFLGRVTIARDTSTSTVFLDLYSLRSEDTAVYFCARAGKRFGESYFDYWGQGTLVTVSSASTKGPSVFPLAPSSKSTSGGTAALGCLVKDYFPEPVTVSWNSGALTSGVHTFPAVLQSSGLYSLSSVVTVPSSSLGTQTYICNVNHKPSNTKVDKRVEPKSCDKTHTCPPCPAPEAAGGPSVFLFPPKPKDTLMISRTPEVTCVVVDVSHEDPEVKFNWYVDGVEVHNAKTKPREEQYNSTYRVVSVLTVLHQDWLNGKEYKCKVSNKALPAPIEKTISKAKGQPREPQVYTLPPSREEMTKNQVSLWCLVKGFYPSDIAVEWESNGQPENNYKTTPPVLDSDGSFFLYSKLTVDKSRWQQGNVFSCSVMHEALHNHYTQKSLSLSPG
chain 2: B1 chain 2
Work on B4 yielded a Kd [2] of 2 nM.
